Broadly, the stoichiometry N is a count of units in the complex or per binding partner.

We go through five molecules from article PMC4591472 (Microbiology (Reading, England), 2015).

For series [1], the target named is T1, FloT tagged to the T25 catalytic domain of adenylate cyclase (B. subtilis NCIB3610, UniProt O32076 1-509).
T1 sequence (looked up): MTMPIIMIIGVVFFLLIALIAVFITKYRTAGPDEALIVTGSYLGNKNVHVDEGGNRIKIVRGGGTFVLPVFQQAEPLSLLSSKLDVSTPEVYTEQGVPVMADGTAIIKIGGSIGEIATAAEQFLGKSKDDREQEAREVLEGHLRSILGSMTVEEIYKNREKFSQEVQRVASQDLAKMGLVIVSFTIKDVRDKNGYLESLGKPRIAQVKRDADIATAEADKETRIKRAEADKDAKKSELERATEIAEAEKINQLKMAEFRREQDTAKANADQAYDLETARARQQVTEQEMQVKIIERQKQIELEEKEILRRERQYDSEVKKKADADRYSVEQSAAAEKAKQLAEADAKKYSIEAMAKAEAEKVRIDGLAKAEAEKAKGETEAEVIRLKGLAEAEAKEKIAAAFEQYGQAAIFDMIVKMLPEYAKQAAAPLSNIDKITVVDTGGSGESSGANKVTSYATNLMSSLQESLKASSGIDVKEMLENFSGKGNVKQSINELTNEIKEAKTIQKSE
The series can be described thus: two-hybrid.

The series “two-hybrid” concerns the molecule itself. The series can be described thus: two-hybrid.
The series “native gel or EMSA” concerns the molecule itself. Description: native gel or EMSA. A general note: In EMSA bound probe runs differently from free probe, usually more slowly.

B1: KinD, bacterial two-hybrid fusion (enzyme, B. subtilis NCIB3610, UniProt O31671 1-506, looked up)
chain: MLERCKLKILKGACGRVKLYIILVVIPAIVISFFVYEKEKDTIAAEHKQEASVLLNLHRNKINYLIGETMARMTSLSIAIDRPVDIKKMQSILEKTFDSEPRFSGLYFLNAKGDVTASTTELKTKVNLADRSFFIKAKETKKTVISDSYSSRITGQPIFTICVPVLDSKRNVTDYLVAAIQIDYLKNLINLLSPDVYIEVVNQDGKMIFASGQASHAEDQKPVSGYLDDISWNMKVYPNPVTIEELSKSLVLPLSCIIVLLNILFILVLYYLLKRQTQLERSENEAQKLELIGTLAASTAHEIRNPLTGISGFIQLLQKKYKGEEDQLYFSIIEQEIKRINQIVSEFLVLGKPTAEKWELNSLQDIIGEIMPIIYSEGNLYNVEVELQYLTEQPLLVKCTKDHIKQVILNVAKNGLESMPEGGKLTISLGALDKKAIIKVVDNGEGISQEMLDHIFLPFVTSKEKGTGLGLVVCKRIVLMYGGSIHIESEVRRGTEVTITLPVSAS
Turning to B1, the β-galactosidase activity in series [1] is about 1100 Miller Units; in the series “two-hybrid”, about 1500 Miller Units.

B2: KinB, bacterial two-hybrid fusion (enzyme, B. subtilis NCIB3610, UniProt Q08430 1-428, looked up)
chain: MEILKDYLLHICFILFPILLYQVFWLGKPAILVPKINSGLVTLFACGASVLCIIFPIHEMDYIQYGLQMIPVIICLFYISTASGLTVAASVLCFELLFYEPSAMFVFTLLPFLIIIPILFQKKWPFMSKAKKLLLSLLISCVEIFLFFASSWILSALNILNFQKSGIFVYEAAVSGLFRSSVLLLSIYIIESIAENIALRSQLIHSEKMTIVSELAASVAHEVRNPLTVVRGFVQLLFNDETLQNKSSADYKKLVLSELDRAQGIITNYLDMAKQQLYEKEVFDLSALIKETSSLMVSYANYKSVTVEAETEPDLLIYGDATKLKQAVINLMKNSIEAVPHGKGMIHISAKRNGHTIMINITDNGVGMTDHQMQKLGEPYYSLKTNGTGLGLTVTFSIIEHHHGTISFNSSFQKGTTVTIKLPADLPH
As for B2, the β-galactosidase activity in “two-hybrid” was about 5500 Miller Units.

B3: ResE, bacterial two-hybrid fusion (enzyme, B. subtilis NCIB3610, UniProt P35164 1-589, looked up)
chain: MKFWKSVVGKLWFTILSLVLIVLFILTVLLLEFIENYHVEEAENDLTQLANKVAVILENHEDQALARSITWELADNLTSIAIIQDEKNHWYSPNDKNRLSSITVEQIQHDKDLNKALKDHKKVSKRTGLSDTDTDNERLIVGVPYEKDGKKGMVFLSQSLLAVKDTTKHTTRYIFLAAGIAIVLTTFFAFFLSSRVTYPLRKMREGAQDLAKGKFDTKIPILTQDEIGELATAFNQMGRQLNFHINALNQEKEQLSNILSSMADGVITINIDGTILVTNPPAERFLQAWYYEQNMNIKEGDNLPPEAKELFQNAVSTEKEQMIEMTLQGRSWVLLMSPLYAESHVRGAVAVLRDMTEERRLDKLREDFIANVSHELRTPISMLQGYSEAIVDDIASSEEDRKEIAQIIYDESLRMGRLVNDLLDLARMESGHTGLHYEKINVNEFLEKIIRKFSGVAKEKNIALDHDISLTEEEFMFDEDKMEQVFTNLIDNALRHTSAGGSVSISVHSVKDGLKIDIKDSGSGIPEEDLPFIFERFYKADKARTRGRAGTGLGLAIVKNIVEAHNGSITVHSRIDKGTTFSFYIPTKR
As for B3, the β-galactosidase activity in series [1] was about 1600 Miller Units.

B4: KinC, bacterial two-hybrid fusion (enzyme, B. subtilis NCIB3610, UniProt P39764 1-428, looked up)
chain: MRKYQARIISIILAMIFIMFWDYLFYFIGKNPINWPVDIVYTAVTLVSVWMLAYYIDEKQQLVKKMKDNEWKYKQLSEEKNRIMDNLQEIVFQTNAKGEITYLNQAWASITGFSISECMGTMYNDYFIKEKHVADHINTQIQNKASSGMFTAKYVTKNGTIFWGEVHYKLYYDRDDQFTGSLGTMSDITERKEAEDELIEINERLARESQKLSITSELAAGIAHEVRNPLTSVSGFLQIMKTQYPDRKDYFDIIFSEIKRIDLVLSELLLLAKPQAITFKTHQLNEILKQVTTLLDTNAILSNIVIEKNFKETDGCMINGDENQLKQVFINIIKNGIEAMPKGGVVTISTAKTASHAVISVKDEGNGMPQEKLKQIGKPFYSTKEKGTGLGLPICLRILKEHDGELKIESEAGKGSVFQVVLPLKSDS
In the case of B4, the results for the β-galactosidase activity (in series [1]; in “two-hybrid”) were over 3500 Miller Units and about 1500 Miller Units, respectively.

B5: KinC-CFP (enzyme, B. subtilis, UniProt P39764 1-428, looked up)
chain: MRKYQARIISIILAMIFIMFWDYLFYFIGKNPINWPVDIVYTAVTLVSVWMLAYYIDEKQQLVKKMKDNEWKYKQLSEEKNRIMDNLQEIVFQTNAKGEITYLNQAWASITGFSISECMGTMYNDYFIKEKHVADHINTQIQNKASSGMFTAKYVTKNGTIFWGEVHYKLYYDRDDQFTGSLGTMSDITERKEAEDELIEINERLARESQKLSITSELAAGIAHEVRNPLTSVSGFLQIMKTQYPDRKDYFDIIFSEIKRIDLVLSELLLLAKPQAITFKTHQLNEILKQVTTLLDTNAILSNIVIEKNFKETDGCMINGDENQLKQVFINIIKNGIEAMPKGGVVTISTAKTASHAVISVKDEGNGMPQEKLKQIGKPFYSTKEKGTGLGLPICLRILKEHDGELKIESEAGKGSVFQVVLPLKSDS
B5: the “stoichiometry N” value in the series “native gel or EMSA” worked out at 2.
